B1: Azoarcus group I ribozyme (parent)
chain: GUGCCUUGCGCCGGGAAACCACGCAAGGGAUGGUGUCAAAUUCGGCGAAACCUAAGCGCCCGCCCGGGCGUAUGGCAACGCCGAGCCAAGCUUCGGCGCCUGCGCCGAUGAAGGUGUAGAGACUAGACGGCACCCACCUAAGGCAAACGCUAUGGUGAAGGCAUAGUCCAGGGAGUGGCGAAAGUCACACAAACCGG

Variants of: B1
Experiment: reverse-splicing fitness (ratio to wild type); higher = more active; in vitro selection; Mg2+ level not given
In short: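 An in vitro group I ribozyme library with randomized positions was T7-transcribed and gel-purified. In triplicate, 10 pmol RNA in EPPS pH 7.5 was reacted with 50 pmoles of a 30-nt RNA substrate for 1 h at 37 °C across several added MgCl2 levels (1–48 mM), then stopped with EDTA. Products were reverse transcribed from a substrate-complementary primer, PCR-amplified and sequenced (HiSeq 4000). Fitness is a variant's read proportion after selection over that before, normalised to wild type.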

Q: With C82A A145C C150G U176C as the variant, how does the reverse-splicing fitness read?
A: The reverse-splicing fitness was 0.0535.

Q: Which reverse-splicing fitness does the source give for C82A A145C C150G U176G here?
A: The reverse-splicing fitness was 0.00808.

Q: With C82G A111C A120C A145G C150A C169U U176C as the variant, how does the reverse-splicing fitness read?
A: Its reverse-splicing fitness is 0.0139.

Q: Which reverse-splicing fitness does the source give for C82G A111C A120C A145G C150A C169U U176G here?
A: The reverse-splicing fitness was 0.00795.

Q: For C82G A111C A120C A145G C150A C169U U176A, which reverse-splicing fitness is on record?
A: The reverse-splicing fitness was 0.0157.

Q: For C82A C150A C169G U176C, which reverse-splicing fitness is on record?
A: Its reverse-splicing fitness is 0.0241.

Q: For C82A C150A C169G U176A, which reverse-splicing fitness is on record?
A: The reverse-splicing fitness was 0.0198.

Q: Which reverse-splicing fitness does the source give for C82A C150A C169G U176G here?
A: The reverse-splicing fitness was 0.0072.

Q: With C82G A111C A120C A145C C150G as the variant, how does the reverse-splicing fitness read?
A: Its reverse-splicing fitness is 0.0093.

Q: For C82G A111C A120C A145C C150A, which reverse-splicing fitness is on record?
A: Its reverse-splicing fitness is 0.00907.

Q: With C82G A111C A120C A145C C150U as the variant, how does the reverse-splicing fitness read?
A: The reverse-splicing fitness was 0.0168.

Q: With C82G A111C as the variant, how does the reverse-splicing fitness read?
A: The reverse-splicing fitness was 0.281.

Q: For C82A A145C C169G U176C, which reverse-splicing fitness is on record?
A: Its reverse-splicing fitness is 0.0138.

Q: Which reverse-splicing fitness does the source give for C82A A145C C169G U176A here?
A: Its reverse-splicing fitness is 0.0247.

Q: Which reverse-splicing fitness does the source give for C82A A145C C169G U176G here?
A: Its reverse-splicing fitness is 0.00402.

Q: For C82A A145G C150A C169A U176C, which reverse-splicing fitness is on record?
A: Its reverse-splicing fitness is 0.0221.

Q: With C82A A145G C150A C169A U176G as the variant, how does the reverse-splicing fitness read?
A: The reverse-splicing fitness was 0.00695.

Q: Which reverse-splicing fitness does the source give for C82A A145G C150A C169A U176A here?
A: The reverse-splicing fitness was 0.0195.

Q: With C82A A145C C169U as the variant, how does the reverse-splicing fitness read?
A: The reverse-splicing fitness was 0.0141.

Q: Which reverse-splicing fitness does the source give for C82A A145C C169G here?
A: The reverse-splicing fitness was 0.0105.

Q: For C82A A145C C169A, which reverse-splicing fitness is on record?
A: The reverse-splicing fitness was 0.00701.

Q: With C82G A111C A120C A145C C150U C169A U176A as the variant, how does the reverse-splicing fitness read?
A: The reverse-splicing fitness was 0.0125.

Q: Which reverse-splicing fitness does the source give for C82G A111C A120C A145C C150U C169A U176G here?
A: Its reverse-splicing fitness is 0.00692.

Q: For C82G A111C A120C A145C C150U C169A U176C, which reverse-splicing fitness is on record?
A: Its reverse-splicing fitness is 0.00824.

Q: With C82A C150U C169A U176G as the variant, how does the reverse-splicing fitness read?
A: The reverse-splicing fitness was 0.00593.

Q: Which reverse-splicing fitness does the source give for C82A C150U C169A U176A here?
A: The reverse-splicing fitness was 0.0169.

Q: For C82A C150U C169A U176C, which reverse-splicing fitness is on record?
A: The reverse-splicing fitness was 0.0144.

Q: With C82G A111C A120C A145C C150A C169A U176C as the variant, how does the reverse-splicing fitness read?
A: Its reverse-splicing fitness is 0.00933.

Q: With C82G A111C A120C A145C C150A C169A U176G as the variant, how does the reverse-splicing fitness read?
A: Its reverse-splicing fitness is 0.00693.

Q: For C82G A111C A120C A145C C150A C169A U176A, which reverse-splicing fitness is on record?
A: The reverse-splicing fitness was 0.0156.

Q: For C82A A145C C169U U176C, which reverse-splicing fitness is on record?
A: Its reverse-splicing fitness is 0.0108.

Q: Which reverse-splicing fitness does the source give for C82A A145C C169U U176A here?
A: The reverse-splicing fitness was 0.0128.

Q: Which reverse-splicing fitness does the source give for C82A A145C C169U U176G here?
A: The reverse-splicing fitness was 0.00467.

Q: With C82G A111C A120C A145G C150A U176G as the variant, how does the reverse-splicing fitness read?
A: Its reverse-splicing fitness is 0.00711.

Q: Which reverse-splicing fitness does the source give for C82G A111C A120C A145G C150A U176C here?
A: Its reverse-splicing fitness is 0.0234.

Q: Which reverse-splicing fitness does the source give for C82G A111C A120C A145G C150A U176A here?
A: The reverse-splicing fitness was 0.0118.

Q: With C82G A111C A120C A145C C150G C169U as the variant, how does the reverse-splicing fitness read?
A: Its reverse-splicing fitness is 0.00944.

Q: Which reverse-splicing fitness does the source give for C82G A111C A120C A145C C150G C169G here?
A: The reverse-splicing fitness was 0.00653.

Q: For C82G A111C A120C A145C C150G C169A, which reverse-splicing fitness is on record?
A: The reverse-splicing fitness was 0.00859.

Q: With C82A A145C C150U as the variant, how does the reverse-splicing fitness read?
A: The reverse-splicing fitness was 0.151.

Q: With C82G A111C A120C A145G C150G C169U U176G as the variant, how does the reverse-splicing fitness read?
A: The reverse-splicing fitness was 0.0072.

Q: With C82G A111C A120C A145G C150G C169U U176A as the variant, how does the reverse-splicing fitness read?
A: The reverse-splicing fitness was 0.0116.

Q: For C82G A111C A120C A145G C150G C169U U176C, which reverse-splicing fitness is on record?
A: The reverse-splicing fitness was 0.0117.

Q: With C82A A145U C150A C169G U176A as the variant, how does the reverse-splicing fitness read?
A: Its reverse-splicing fitness is 0.0139.

Q: With C82A A145U C150A C169G U176G as the variant, how does the reverse-splicing fitness read?
A: The reverse-splicing fitness was 0.0059.

Q: For C82A A145U C150A C169G U176C, which reverse-splicing fitness is on record?
A: The reverse-splicing fitness was 0.0131.

Q: Which reverse-splicing fitness does the source give for C82A C150G C169A U176A here?
A: The reverse-splicing fitness was 0.0112.

Q: For C82A C150G C169A U176C, which reverse-splicing fitness is on record?
A: The reverse-splicing fitness was 0.0111.

Q: For C82A C150G C169A U176G, which reverse-splicing fitness is on record?
A: Its reverse-splicing fitness is 0.00678.

Q: Which reverse-splicing fitness does the source give for C82A A145G C150U C169A U176A here?
A: Its reverse-splicing fitness is 0.0161.

Q: For C82A A145G C150U C169A U176C, which reverse-splicing fitness is on record?
A: Its reverse-splicing fitness is 0.0166.

Q: For C82A A145G C150U C169A U176G, which reverse-splicing fitness is on record?
A: The reverse-splicing fitness was 0.00665.

Q: Which reverse-splicing fitness does the source give for C82A C150G C169U U176A here?
A: Its reverse-splicing fitness is 0.00724.

Q: With C82A C150G C169U U176G as the variant, how does the reverse-splicing fitness read?
A: Its reverse-splicing fitness is 0.00641.

Q: For C82A C150G C169U U176C, which reverse-splicing fitness is on record?
A: The reverse-splicing fitness was 0.0109.

Q: With C82A A145G C169A U176C as the variant, how does the reverse-splicing fitness read?
A: Its reverse-splicing fitness is 0.0322.

Q: Which reverse-splicing fitness does the source give for C82A A145G C169A U176G here?
A: The reverse-splicing fitness was 0.00573.

Q: With C82A A145G C169A U176A as the variant, how does the reverse-splicing fitness read?
A: The reverse-splicing fitness was 0.0185.

Q: Which reverse-splicing fitness does the source give for C82A A145C C150U C169A here?
A: The reverse-splicing fitness was 0.00801.

Q: Which reverse-splicing fitness does the source give for C82A A145C C150U C169G here?
A: The reverse-splicing fitness was 0.00747.

Q: For C82A A145C C150U C169U, which reverse-splicing fitness is on record?
A: Its reverse-splicing fitness is 0.0111.

Q: With C82A C150U C169A as the variant, how does the reverse-splicing fitness read?
A: Its reverse-splicing fitness is 0.0105.

Q: For C82A C150U C169U, which reverse-splicing fitness is on record?
A: The reverse-splicing fitness was 0.0139.

Q: With C82A C150U C169G as the variant, how does the reverse-splicing fitness read?
A: Its reverse-splicing fitness is 0.0106.

Q: Which reverse-splicing fitness does the source give for C82A A145U C169U here?
A: The reverse-splicing fitness was 0.0136.

Q: With C82A A145U C169A as the variant, how does the reverse-splicing fitness read?
A: Its reverse-splicing fitness is 0.0085.

Q: For C82A A145U C169G, which reverse-splicing fitness is on record?
A: Its reverse-splicing fitness is 0.00976.

Q: For C82A A145U C150G C169U U176G, which reverse-splicing fitness is on record?
A: The reverse-splicing fitness was 0.00595.

Q: With C82A A145U C150G C169U U176A as the variant, how does the reverse-splicing fitness read?
A: Its reverse-splicing fitness is 0.00877.

Q: With C82A A145U C150G C169U U176C as the variant, how does the reverse-splicing fitness read?
A: Its reverse-splicing fitness is 0.0116.

Q: With C82G A111C A120C A145C C150U C169U U176C as the variant, how does the reverse-splicing fitness read?
A: The reverse-splicing fitness was 0.0133.

Q: With C82G A111C A120C A145C C150U C169U U176A as the variant, how does the reverse-splicing fitness read?
A: The reverse-splicing fitness was 0.0131.

Q: Which reverse-splicing fitness does the source give for C82G A111C A120C A145C C150U C169U U176G here?
A: The reverse-splicing fitness was 0.0064.

Q: With C82A A145G C150U C169G U176C as the variant, how does the reverse-splicing fitness read?
A: Its reverse-splicing fitness is 0.02.

Q: Which reverse-splicing fitness does the source give for C82A A145G C150U C169G U176G here?
A: The reverse-splicing fitness was 0.00547.

Q: For C82A A145G C150U C169G U176A, which reverse-splicing fitness is on record?
A: Its reverse-splicing fitness is 0.0138.

Q: With C82A A145G C150G C169U U176A as the variant, how does the reverse-splicing fitness read?
A: Its reverse-splicing fitness is 0.0117.

Q: For C82A A145G C150G C169U U176C, which reverse-splicing fitness is on record?
A: Its reverse-splicing fitness is 0.0136.

Q: Which reverse-splicing fitness does the source give for C82A A145G C150G C169U U176G here?
A: The reverse-splicing fitness was 0.00762.

Q: For C82G A111C A120C A145C C150G C169A U176G, which reverse-splicing fitness is on record?
A: The reverse-splicing fitness was 0.00733.

Q: With C82G A111C A120C A145C C150G C169A U176C as the variant, how does the reverse-splicing fitness read?
A: Its reverse-splicing fitness is 0.00796.

Q: With C82G A111C A120C A145C C150G C169A U176A as the variant, how does the reverse-splicing fitness read?
A: The reverse-splicing fitness was 0.00832.

Q: With C82G A111C A120C as the variant, how does the reverse-splicing fitness read?
A: The reverse-splicing fitness was 0.0556.
